Marks after values point to notes of the source that are not given here. Ends that are not written are not given here.
B1: muscle acylphosphatase: human muscle acylphosphatase protein, forms amyloid fibrils in 25% v/v trifluoroethanol (protein, UniProt P14621 2-99, looked up)
Acylphosphatase-2: STAQSLKSVDYEVFGRVQGVCFRMYTEDEARKIGVVGWVKNTSKGTVTGQVQGPEDKVNSMKSWLSKVGSPSSRIDRTNFSNEKTISKLEYSNFSIRY

How the values were obtained:
Assay type in all cases: physicochemical
[1] = Transmission electron microscopy screen for amyloid fibrils (CspB peptides); parameters: key: (++) strongly positive; (+) weakly positive; (0) no positive evidence; conditions: 2.0 mg/mL peptide
Experimental: Fibril formation and morphology were examined by transmission electron microscopy (EM). Peptide samples were dried onto formvar-and carbon-coated grids and negatively stained with 1% phosphotungstic acid (PTA). Grids were examined in a JEOL JEM-1010 electron microscope at 80 kV excitation voltage.
(§1) Analysis by three independent techniques of samples produced by dilution of concentrated solutions of all three peptides (10.0 mg/mL diluted to 2.0 mg/mL final concentration) from 50% to either 10 or 90% acetonitrile was carried out to screen for the presence of amyloid fibrils.
(§2) Aggregated states of all three peptides produced in 10 and 90% acetonitrile were analysed using these techniques.

[2] = Congo red binding assay of amyloid fibril formation (CspB peptides); parameters: key: (++) strongly positive; (+) weakly positive; (0) no positive evidence
Experimental: For the congo red binding assay of fibril formation, absorption spectra of a 10 μM solution of the dye in the assay buffer (5 mM phosphate pH 7.41 […]) before and after addition of the peptide solution were recorded on a Perkin Elmer (Foster City, Calif.) Lambda 16 spectrometer in the range of 400 to 700 nm.
Analysis by three independent techniques of samples produced by dilution of concentrated solutions of all three peptides ([…]) from 50% to either 10 or 90% acetonitrile was carried out to screen for the presence of amyloid fibrils.
as §2

[3] = 1D NMR estimate of percentage of peptide visible in solution; conditions: 10 mg/mL in 50% acetonitrile
Experimental: A series of 1D spectra was used to estimate the percentage of peptide visible by solution NMR. These 1D spectra were all acquired with a gain of 7,000 and 256 scans on the same 500 MHz NMR spectrometer, in consecutive experiments. The concentration of a tryptophan solution was calculated from its absorbance at 280 nm. The integration of the indole resonances in these ID spectra from the tryptophan and peptide solutions was used to estimate the concentration of the peptide solutions.
Any small oligomers (whose signals merge with the monomer signal if conformational interconversion takes place on a time scale shorter than that resolvable by this method, i.e. less than ˜100 ms) can only exist as minor populations. […] The remainder must therefore be in large soluble aggregates whose overall tumbling times are too large to give resolvable NMR […].

[4] = Light microscopy of congo red stained precipitates, green birefringence (CspB peptides); parameters: key: (++) strongly positive; (+) weakly positive; (0) no positive evidence; conditions: 2.0 mg/mL peptide
Experimental: Yellow green birefringence indicates the presence of cross […].
as §1, §2

[5] = β-sheet content from CD ellipticity at 215 nm; conditions: 0.4 mg/mL
Experimental: CD spectra were recorded on a Jasco J720 spectropolarimeter using quartz cuvettes of 1 mm pathlength, at 1 nm intervals from 195 to 250 nm. Routinely, CD samples were examined 30 min after dilution from the peptide stock solution containing 50% acetonitrile.
Calculation of the β-sheet content was carried out using the ellipticity at 215 nm normalized to a per residue basis (units: deg cm^2/dmol).

[6] = Hydrodynamic radii by NMR diffusion measurements (pulse field gradient); conditions: 10 mg/mL peptide in 50% acetonitrile
Experimental: All NMR spectra were acquired at ^1H frequencies of 500 or 600 MHz on homebuilt NMR spectrometers at the Oxford Centre for Molecular Sciences. One dimensional (1D) spectra typically contain 8K complex data points. Two dimensional (2D) experiments were acquired with 2K complex data points in the t2 dimension, and in phase-sensitive mode using time proportional phase incrementation (TPPI) for quadrature detection in t1. Diffusion constants were determined using pulse field gradient experiments with 8K complex points. Spectral widths of 8,000 Hz were used for all experiments. […] The water signal was suppressed either by using presaturation during the 1.2 s relaxation delay or by using a gradient double echo. […] Data were processed using Felix 2.3 (BIOSYM) on Sun workstations. Typically, the data were zero filled once, and processed with a double exponential window function for the 1D, and a sinebell squared function, shifted over 90° for each dimension of the 2D spectra. All spectra were referenced to an internal standard of dioxan at 3,743 ppm.

[7] = Solubility in aqueous buffer or acetonitrile cosolvent; conditions: aqueous buffer; aqueous buffers, pH 6.0 to 7.2, no cosolvent; read-out: Solubility under similar conditions (aqueous buffers)
Experimental: In contrast, none of the three peptides are soluble under similar conditions to any significant extent; CspB-2, for example, dissolves only to ˜0.2 mg/mL. To solubilize the peptides, acetonitrile was used as a cosolvent at pH 4.0 (formic acid, unbuffered). […] A standardized set of combinations of peptide concentration and solvent composition was used, involving peptide concentrations of 0.4, 2 and 10 mg/mL, and acetonitrile concentrations of 10, 50 and 90%.

[8] = Congo Red absorption and birefringence of muscle acylphosphatase aggregate
Experimental: (§3) Muscle acylphosphatase was purified as previously reported (A. Modesti et al. (1995) Protein Express Purif. 6, 799) and incubated at a concentration of 0.375 mg/ml (34 μM) in 25% v/v trifluoroethanol (TFE), acetate buffer, pH 5.5 at 25° C. under constant stirring. Aliquots were withdrawn at regular time intervals for electron microscopy and spectroscopic analysis. Circular dichroism spectra were acquired directly by means of a Jasco J-720 spectropolarimeter and cuvettes of 1 mm path length. Electron micrographs were acquired by a JEM 1010 transmission electron microscope at 80 kV excitation voltage. A 3 μL sample of protein solution was placed and dried for five minutes on a Formvar and carbon-coated grid. The sample was then stained with 3 μL 1% phosphotungstic acid solution and observed at magnifications of 25-100k.
(§4) Thioflavin T and Congo Red assays were performed according to Le Vine III (H. Le Vine III (1995) Amyloid: Int. J. Exp. Clin. Invest. 2,1.) and Klunk (W. E. Klunk et al. (1989) J. Histochem. Cytochem. 37, 1293), respectively. For Congo Red birefringence experiments aliquots of protein were air dried onto glass slides. The resulting films were stained with a saturated solution of Congo red and sodium chloride, corrected to pH 10.0 with 1% sodium hydroxide. The stained slides were examined by an optical microscope between crossed polarizers.

[9] = Thioflavin T assay of muscle acylphosphatase aggregate; conditions: aggregate after two weeks in 25% v/v TFE, pH 5.5, 25° C.
Experimental: as §3, §4

[10] = 10% acetonitrile, first experiment, 1.6 mg/mL peptide
[11] = 10% acetonitrile, second experiment, 2.0 mg/mL peptide
[12] = 90% acetonitrile, first experiment, 1.6 mg/mL peptide
[13] = 90% acetonitrile, second experiment, 2.0 mg/mL peptide
[14] = 10% acetonitrile, first experiment
[15] = 90% acetonitrile, first experiment
[16] = 90% acetonitrile, second experiment

| Molecule | Amyloid fibril formation, EM ([1]; 10% acetonitrile) | Amyloid fibril formation, EM ([1]; 90% acetonitrile) | Amyloid fibril formation, Congo Red [2, 10] | Amyloid fibril formation, Congo Red [2, 11] | Amyloid fibril formation, Congo Red [2, 12] | Amyloid fibril formation, Congo Red [2, 13] | Total peptide concentration detectable in the NMR spectra [3] [%] | Amyloid fibril formation, LM green birefringence [4, 14] | Amyloid fibril formation, LM green birefringence ([4]; 10% acetonitrile, second experiment) | Amyloid fibril formation, LM green birefringence [4, 15] | Amyloid fibril formation, LM green birefringence [4, 16] | β structure content (CD) ([5]; 90% acetonitrile) [%] | Hydrodynamic Stokes radius [6] | solubility [7] [µg/mL] | β-sheet content (CD) ([5]; 2.5% acetonitrile) [%] | β-sheet content (CD) ([5]; 15 to 70% acetonitrile) [%] | β-sheet content (CD) ([5]; 97.5% acetonitrile) [%] | Congo Red birefringence under cross-polarised light ([8]; fibrils after two weeks of incubation) | Congo Red difference spectrum, maximum intensity ([8]; spectrum of aggregate plus dye minus aggregate alone and dye alone) [nm] | Increase of the 482 nm fluorescence (excitation 440 nm) of Thioflavin T [9] |
| --- | --- | --- | --- | --- | --- | --- | --- | --- | --- | --- | --- | --- | --- | --- | --- | --- | --- | --- | --- | --- |
| CspB-1: peptide, residues 1-22 of B. subtilis cold shock protein CspB, corresponding to the first two β-strands (MLEGKVKWFNSEKGFGFIEVEG; UniProt P32081 1-22, looked up, fragment) | ++ | 0 | ++, ++ | ++, ++ | ++ | 0 | ~20 | ++, ++ | ++, ++ | ++, ++ | ++, ++ | ~70 | 1.60^a nm |  |  |  |  |  |  |  |
| MLEGKVKWFNSEKGFGFIEVEGQDDVFVHFSAIQG [CspB-2] | ++ | ++ | ++ | 0 | 0 | ++ |  | + |  | ++ | 0 |  | 1.68 nm | ~200 | 100 | ~20 | 71.5 |  |  |  |
| B1 |  |  |  |  |  |  |  |  |  |  |  |  |  |  |  |  |  | characteristic green birefringence | 540 | three fold increase |

Reference: US20060128606A1, “Fibrils” (priority 1998, published 2006)
